# According to the supplement of paper PMC9170038:
# System: K4 kissing-loop RNA reporter
# Experiment: apparent KD of K4 kissing-loop reporter; higher = weaker reporter binding
# Details: Eterna round: R107; input ligand: none
# Protocol: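 RNA-MaP round R107: designed RNA switches with theophylline, tryptophan, arginine or FMN aptamers are transcribed on-chip within common flanks. They are titrated with a labelled K4 kissing-loop RNA reporter in RNA-MaP buffer (100 mM Tris pH 7.5, 80 mM KCl, 4 mM MgCl2), without ligand or with the indicated ligand. Median apparent KD per design.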
# 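Note: bound reporter read as fluorescence of individual clusters on recovered sequencing chips by microscopy, with normalized cluster intensities fitted with a binding model.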
row,Sequence,apparent KD of K4 kissing-loop reporter [µM]
1,ACGUGCACCAGUGAUGUUGGAAAAUAUGAAGGAGCGGGAGAAAACCCAGGUAGGUCGCAUAAUUGCACGAGCCACGAAAGUGGCA [#15 K4 Arginine A Same State],0.0883
2,UGUGUUUACCUGACUCAGUGAUGUUGAGAAGGAGCGUGCGAACGCACAGGUAGGUCGCUCAACCUAAAUUCAGGUGAGCACUAAA,0.499
3,AAAUAUUCGAGUGAUGUUCGAUAAAUAUCAGAGGAUAUGCUUAAAAGCAGAAGGCUGUAUUUCUAUUUGUUAUGUAAUUUUAUAA [JR_SSFMNA_Sub021],0.135
4,AAGCAGUCACUCGACGCCAUCGAAGAUGGGCGAGGACCGGUACGGCCGCCACUCGGAGUGAUGUUCUGAUGACUGCAAAAUAAAA [MatMod 8 - Jieux - Exclusion - Tryptophan A],0.118
5,AAGGUCACUGCUACAGUGAUGUUGUGGGAGCAGGAUAUGCAGAAAUGCAGAAGGGCUCGCUCCAGGUGACCGAAUGAAACAUUCA [whbob_SS_FMNA__2th175],1.5
6,AUGCAGUGAUGUUGCUUUGUAUAAACAGAUACCAGUGAAUUUUAACACCCUUGGCAGCUGAUAGAUUCUUAAUUCUAUUAUAUAA [JR_SSTheophyA_Sub020],0.165
7,UUAUAUACGAGUGAUGUUCGUUAUUUAUCAGAGGAUAUGCUUAAAUGCAGAAGGCUGUUUUUCUAUUUGAUAUUAAAUUUUAUAA [JR_Nu3_ExcFMNA_Sub027],0.0696
8,UUGGUCUUUUAAGGAUAUCAUACUCCACUGAGCGAGUGAUGUUCGCUCCUGUUACGCCUGGGACCGUGAGAAGGUAAAGUACCGU [theeternabot_sameState_KL_FMN_B_5],0.163
9,UCCUAGGACUUCAGGCGAAAGCCCUGCGAAGGAGCGUGCGAAAGCACAGGUAGGUCGCGCAGUGAUGUUGCACCUAGGUAAUAAA [#SwitchBubble 20 #K4Late],0.489
10,GUGCAGUGAUGUUGCACGAGGAAAGACGAUACCAGCCGUAAAUAAGGCCCUUGGCAGCGUAGGCUAGCAUAAAGCAUGCUAGUCC [Edeson],0.111
11,UGUCAUUGGUCGGCCGCCACUUUGUAUGGAGUGAUGUUUUGUAGAUUGUGUUGAAAGGUGUGGUGAAGGACCGGGACCGAUGACU [FiskerMod 24 - Jieux - Same State - Tryptophan B],0.922
12,UGUACCGAGUCAGGAUAUCAUAAUAAAUGCAGUGAUGUUGCAAUAACCAGUACAAAAGUGCUGGAUUGAGAAGGGACUUGGUACU [FmnBS 5 #SwitchBubble #StaticStem],0.126
13,AGAGUACGAAAGUACUCCUCUACACACUGACGAGGACCGGUACGGCCGCCACUCGAGUUGAGUGAUGUUCGAUAGUGUGUAGAGA [Omei KL Tryp A SS C v3],0.097
14,GCAGCUCGGGAGUGAUGUUCUCGUAGAGGAAAGGAUAUGUACUUAGACAGAAGGUUCGCAAUUUGCGGUCUUAAGAUAGAAUAAC [theeternabot_sameState_KL_FMN_A_40],0.207
15,CACCCAGUCCUCGAUACCAGACUGGCACGUCAAAAGGUCCAGUGAUGUUGAGCCUAACAAGUCCCUUGGCAGCGACCAGUGUAUU [theeternabot_exclusion_KL_Theo_B_30],0.729
16,AGACUACUGAUAGGAUAUAACAUACUACCUCGUAUACCAAAGGUAUACGAGGCCCUUCUAGUGAUGUUAGAAGGGUCGGUAGUCA [Omei KL FMN B Exc B v5],0.0795
17,CUCGAGUGAUGUUCGACGCGUCCGUACGAUACCAGCGUAGACCGUCGCCCUUGGCAGCGUGAUGCAGCCCGAAAGUCCGGUUCCU [theeternabot_sameState_KL_Theo_A_26],1.43
18,AAUAUCUAGUAUAUUUUUAAUAAAACAGAUACCAGUGAUAAUAGACACCCUUGGCAGCUGGUCGAGUGAUGUUCGUUUAUUUUAA [JR_SSTheophyA_Sub005],0.105
19,AAUCGCGAGUCAGAUACCAGUUGGCUCGAGAGUCAGUGAUGUUGAUGUAAAUCUUAGGCGAACCCUUGGCAGCUGUCACCAGUCC [theeternabot_sameState_KL_Theo_B_27],0.354
20,GGAGUUACCUGGGAUACCAGUCGGAGUCCCAGAGCACAGAGUGAUGUUCUGGGAUGUUUCGGCCCUUGGCAGCUCUGGGACUCCC [#2 Exclusion - Theophylline B Attempt #13 (HarryS)],0.142
21,AUGCAUGAAAGUGAUGUUUUCAGUAAUGGAAAGGAUAUGCGCUGGUGCAGAAGGUUCUAAAGUGCAUCCAACAACUGGGUAGGCC [theeternabot_sameState_KL_FMN_A_36],0.322

# Same assay, conditions: Eterna round: R107; input ligand: theophylline 20 uM
row,Sequence,apparent KD of K4 kissing-loop reporter [µM]
1,GCAGGAUGAGGAGGAGGAUGAAUUACUGAAGGAGCGCAUAUUUUUGCAGGUAGGUCGCGGUAAAGAAGUAUAGUGAUGUUAUAUA [SSArgA.K],0.568
2,UGUGUACCGGGAAGGAGCGUGAAUGAUAAUGGAUAUAGUGAUGUUAUAUAUACGAACGAAUCGCAGGUAGGUCGCCCGGAUCCCU [SSArgB.X],0.559
3,GCAGUGAUGUUGCGGAUGUACAGUGGCGUGCGAGGACCGGUACGGCCGCCACUCGUACAGACCAAGCUAAUACAUCGAUAGGUGA [whbob_SS_Tryp_A_m3],0.287
4,AGAUGGCAGUGAUGUUGCUGUUGGAGGGAUAAGGAUAUUGGCUAAACAAGAAGGUAUCGGCGGCAUUGAGGAAUGGGAGGCGCCU [theeternabot_exclusion_KL_FMN_A_7],0.449
5,CGACGGAGUGAUGUUUCGUGGUAUGCUGAUACCAGAUGAAACAGCGUCCCUUGGCAGCAGCAUACGCCAAGGAUAAUAUCCUAGU [Theo B SS t6],0.531
6,GGGAGGAGUGGUGUUGAUUAGGGAGCGGAAGGAGCGCCGAGGAAGGCAGGUAGGUCGCCGGAUUAUAGUGAUGUUAUGAAGAGGG [ExArg.J],1.01
7,UAUUCUAAUGCGGCCGCCACUGGAAGUGAUGUUUCCUCUGGCUAUCAUUUCGGACGGUAUUGUCCCAGGACCGGGCAUCCCUCUC [theeternabot_exclusion_KL_Trp_B_4],0.104
8,GGAUGGUAGGCGGCCGCCACUAAAACUGAACACAUACAAGCCAGUGAUGUUGGUAUGAUGAAGUAUAGGACCGGGCCUAGAUAGA [Exclusion - Tryptophan B (Freestyle 3)],0.502
9,GGCACGGUGGCGCGACUGCCGUGCGCUUGGGAGGAUAUGUUUCGUGACAGAAGGCCCAGUGAUGUUGGGUCUGUUCAAAAGGACU [Gegearer],0.13
10,UAUAUAGUGACGGCCGCCACUAUAGUGAUGUUAUUGUUAGAGUGAUGUUUUGUUGUUUAAUUUUGUAGGACCGGGUUAUAUGUUA [tbbtmullin],0.497
11,UCGGACCCUGGAGGAUAUGAGUCGAGUGAUGUUCGGCGGUCCAUGCCGAUGCGGCGUUAUGCCCUUUUAGAAGGCCAGGGUCCGA [#2 Exclusion - FMN B Attempt #10 (HarryS)],0.268
12,AUUAAUUUCAGAGGAUAUCGUUAUUUUUUUAAGUAUAAUCUAUUUUGCAGUGAUGUUGCUAUUAAUCGAGAAGGCUGAUUUAUAA [JR_SSFMNB_Sub020],0.136
13,AGUACGGACACGGCCGCCACUCAGAAGAAGACAGUAGUGAUGUUACUGAUGGUGAGAAUAAUAAAGAGGACCGGGUGUCGUGCAA [#05 K4 Tryptophan B Same State],0.23
14,GUUACGCAUGGAAGGAGCGCGAAAAUUUAUAGUGAGUGAUGUUCACAAAUAAGAAUAAUAACGCAGGUAGGUCGCCAUGUGUAAC [Ex Arginine B K4 5],0.118
15,UGAUUGGCGAAAGUAGUGAUGUUACGAAUAUAGGAUAUUAGAGGAAUAAGAAGGAUAAGGGAGAAAUAGGUAAAUUGUUGGUUGG [whbob_SS_FMNA__2th170],0.126
16,AUUCUAUGGAGUGAUGUUCCUGUGAUGUCACGAGGACCGGUACGGCCGCCACUCGAUGUAUUGGUUUUUGAAAGAAACAACUGCA [Same State-Tryptophan A],0.773

row,Sequence,apparent KD of K4 kissing-loop reporter [µM]
1,AAGUCUCGUUAAUUCGAGGUUGCGAUCGAUACCAGUAGCGAGAGGUACCCUUGGCAGCGAAGUGAGUGAUGUUCAUGAAAGAAGA [KL-XTheoA13],0.113
2,AGGAUCGAAGAUCCAGCAGUCAAGCAAUACCGAGGACCGGUACGGCCGCCACUCGGAGUGAUGUUCCGAAGACUGCAAAAUAAAA [#SwitchBubble 8],0.592
3,GCGGCCCAGCCGGAUACCAGUGAGCCGCUGGGAACCGCGGGCCCAGAGUGAUGUUCGGGACACCCUUGGCAGCCGCCUGGGUCGC [#2 Same State - Theophylline B Attempt #20 (HarryS)],0.301
4,AAUAAAAUCACGGCCGCCACUGAUGCUAAUAUUGGCAGUGAUGUUGCUAUGUAUAUUUUAUUUGACAGGACCGGGUGAAUAUUUA [#24 K4 Tryptophan B Exclusion],0.263
5,GUAGCACAGUCGGCCGCCACUGUCGGUUCUCCAGUGAUGUUGGAGUUAGUUCGUCGCAGUUCAAACAGGACCGGGACCAUUCCUU [theeternabot_exclusion_KL_Trp_B_26],0.132
6,ACGUGCACCAGUGAUGUUGGAAAAUAUGAAGGAGCGGGAGAAAACCCAGGUAGGUCGCAUAAUUGCACGAGCCACGAAAGUGGCA [#15 K4 Arginine A Same State],0.145
7,UGUGUUUACCUGACUCAGUGAUGUUGAGAAGGAGCGUGCGAACGCACAGGUAGGUCGCUCAACCUAAAUUCAGGUGAGCACUAAA,0.611
8,AAAUAUUCGAGUGAUGUUCGAUAAAUAUCAGAGGAUAUGCUUAAAAGCAGAAGGCUGUAUUUCUAUUUGUUAUGUAAUUUUAUAA [JR_SSFMNA_Sub021],0.154
9,AAGCAGUCACUCGACGCCAUCGAAGAUGGGCGAGGACCGGUACGGCCGCCACUCGGAGUGAUGUUCUGAUGACUGCAAAAUAAAA [MatMod 8 - Jieux - Exclusion - Tryptophan A],0.156
10,AAGGUCACUGCUACAGUGAUGUUGUGGGAGCAGGAUAUGCAGAAAUGCAGAAGGGCUCGCUCCAGGUGACCGAAUGAAACAUUCA [whbob_SS_FMNA__2th175],0.887
11,AUGCAGUGAUGUUGCUUUGUAUAAACAGAUACCAGUGAAUUUUAACACCCUUGGCAGCUGAUAGAUUCUUAAUUCUAUUAUAUAA [JR_SSTheophyA_Sub020],0.197
12,UUAUAUACGAGUGAUGUUCGUUAUUUAUCAGAGGAUAUGCUUAAAUGCAGAAGGCUGUUUUUCUAUUUGAUAUUAAAUUUUAUAA [JR_Nu3_ExcFMNA_Sub027],0.0811
13,UUGGUCUUUUAAGGAUAUCAUACUCCACUGAGCGAGUGAUGUUCGCUCCUGUUACGCCUGGGACCGUGAGAAGGUAAAGUACCGU [theeternabot_sameState_KL_FMN_B_5],0.147
14,UCCUAGGACUUCAGGCGAAAGCCCUGCGAAGGAGCGUGCGAAAGCACAGGUAGGUCGCGCAGUGAUGUUGCACCUAGGUAAUAAA [#SwitchBubble 20 #K4Late],1.02
15,GUGCAGUGAUGUUGCACGAGGAAAGACGAUACCAGCCGUAAAUAAGGCCCUUGGCAGCGUAGGCUAGCAUAAAGCAUGCUAGUCC [Edeson],0.0984
